Experimental data published in US20220356230A1 (published 2022).

T1: MERS-CoV (NCoV/Novel coronavirus) Spike Protein fragment (RBD, aa 367-606, His Tag) (Sino 40071-V08B1) (MERS-CoV, UniProt K9N5Q8 367-606)
T1 sequence: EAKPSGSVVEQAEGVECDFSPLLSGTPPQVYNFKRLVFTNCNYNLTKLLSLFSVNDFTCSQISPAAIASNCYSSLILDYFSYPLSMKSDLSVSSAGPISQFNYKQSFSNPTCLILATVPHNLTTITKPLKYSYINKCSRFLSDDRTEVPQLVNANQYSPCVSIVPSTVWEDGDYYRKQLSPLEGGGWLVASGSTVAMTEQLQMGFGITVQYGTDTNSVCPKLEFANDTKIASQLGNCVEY

T2: MERS-CoV (NCoV/Novel coronavirus) Spike Protein S1 Protein (aa 1-725, His Tag) (Sino 40069-V08B1) (MERS-CoV, UniProt K9N5Q8 18-725)
T2 sequence: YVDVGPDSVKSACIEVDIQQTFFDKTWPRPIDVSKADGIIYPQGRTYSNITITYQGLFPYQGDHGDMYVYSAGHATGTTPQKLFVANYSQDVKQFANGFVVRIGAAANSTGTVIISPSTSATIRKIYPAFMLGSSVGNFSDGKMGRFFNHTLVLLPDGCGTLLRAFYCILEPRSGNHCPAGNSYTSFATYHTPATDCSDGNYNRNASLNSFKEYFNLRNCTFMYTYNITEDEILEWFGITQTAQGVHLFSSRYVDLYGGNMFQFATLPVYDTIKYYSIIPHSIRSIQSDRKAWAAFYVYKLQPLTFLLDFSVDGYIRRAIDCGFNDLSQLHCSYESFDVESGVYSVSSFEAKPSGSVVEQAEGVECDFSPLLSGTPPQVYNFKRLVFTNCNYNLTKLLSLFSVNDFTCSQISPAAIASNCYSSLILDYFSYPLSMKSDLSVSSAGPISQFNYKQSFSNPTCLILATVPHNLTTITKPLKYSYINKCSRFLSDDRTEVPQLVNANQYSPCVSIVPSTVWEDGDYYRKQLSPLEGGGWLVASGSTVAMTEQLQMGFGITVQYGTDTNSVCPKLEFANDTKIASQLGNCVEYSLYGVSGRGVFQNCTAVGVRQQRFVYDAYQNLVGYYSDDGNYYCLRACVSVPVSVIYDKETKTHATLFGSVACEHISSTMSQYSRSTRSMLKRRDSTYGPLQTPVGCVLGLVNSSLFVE


Columns and labels:
[1] = target: T1, MERS-CoV (NCoV/Novel coronavirus) Spike …; experiment: Luminex bead assay, supernatant
[2] = target: T2, MERS-CoV (NCoV/Novel coronavirus) Spike …; experiment: Luminex bead assay, supernatant

Binder | Binding signal (MFI) [1] [MFI] | Binding signal (MFI) [2] [MFI]
mAb10934 (antibody, V domains shown) VH: not shown VL: DIQMTQSPSSLSASVGDRVTITCQASQDIWNYINWYQQKPGKAPKLLIYDASNLKTGVPSRFSGSGSGTDFTFTISSLQPEDIATYYCQQHDDLPPTFGQGTKVEIKR | 24 | 20
mAb10935 (antibody, V domains shown) VH: EVQLVESGGGLVQPGGSLRLSCAASGFTVSSNYMSWVRQAPGKGLEWVSLIYSGGSTYYADSVKGRFTISRHNSKNTLYLQMNSLRSEDTAVYYCARVPLGDYYYGMDVWGQGTTVTVSS VL: DIQMTQSPSSLSASVGDRVTITCQASQDINKYLNWYQQKPGKAPKLLIYDASNLETGVPSRFSGSGSGTDFTFTISSLQPEDIATYYCQQSDNLPLTFGGGTKVEIKR | 25 | –
mAb10938 (antibody, V domains shown) VH: EVQLVESGGGLVQPGGSLRLSCAVSGFTVSSNYMSWVRQAPGKGLEWVSLIYSGGSTFYADSVKGRFTISRHNSKNTLYLQMNSLRAEDTAVYYCAREGGYSYDYNYWGQGTLVTVSS VL: DIQMTQSPSSLSASVGDRVTITCQASQDIRNYLNWYQQKPGKAPKLLIYDASNLETGVPSRFSGIGSGTDFTFTISSLQPEDIATYYCQQYDNLPITFGQGTRLEIKR | 25 | 20
mAb10920 (antibody, V domains shown) VH: QVQLVESGGGVVQPGRSLRLSCAASGFTFSYYGMHWVRQAPGKGLEWVAVIWYDGSNKFYADSVKGRFTISRDNSKNTLYLQMNSLRAEDTAVYYCAAARPGYYYGMDVWGQGTTVTVSS VL: DIQMTQSPSSLSASVGDRVTITCRASQGISNYLAWFQQKPGKAPNSLIYAASSLQRGVPSKFSGSGSGTDFTLTISSLQPEDFATYYCQQYNSYPRTFGQGTKVEIKR | 39 | 27
mAb10969 (antibody, V domains shown) VH: QVQLVESGGGVVQPGRSLRLSCAASGFTFSSYAMHWVRQAPGKGLEWVAVISYDGSNKYYADSVKGRFTISRDNSKNTLYLQMNSLRAEDTAVYYCARDGRTITMVRGVIDDAFDIWGQGTMVTVSS VL: not shown | – | 19
mAb10936 (antibody, V domains shown) VH: QVQLVESGGGVVQPGRSLRLSCAASGFTFRNYGMHWVRQAPGKGLEWVSVIWYDGSNRYYADSVKGRFTISRDTSKNTLYLQMNSLRAEDTAVYYCARDPPITGTTGGDAFDIWGQGTMVTVSS VL: not shown | 29 | 20
mAb10914 (antibody, V domains shown) VH: EVQLVESGGGLVQPGGSLRLSCAASGLIVSRNYMIWVRQAPGKGLEWVSVIYSGGSTFYADSVKGRFTISRHNSKNTLYLQMNSLRAEDTAVYYCARDLGTGGMDVWGQGTTVTVSS VL: DIQLTQSPSFLSASVGDRVTITCWASQGISSYLAWYQQKPGKAPKLLIYAASTLQSGVPSRFSGSGSGTEFTLTISSLQPEDFATYYCQQLNSYPLTFGGGTKVEIKR | 31 | 23
mAb10957 (antibody, V domains shown) VH: EVQLVESGGGLVQPGGSLRLSCAASGVTVSSNYMSWVRQAPGKGLEWVSVIYSGGSTFYADSVKGRFTISRDNSKNTLFLQMNSLRIEDTAVYYCARDLGPYGMDVWGQGTTVTVSS VL: DIQLTQSPSFLSASVGDRVTITCRASQGISSYLAWYQQKPGKAPKLLIYAASTLQSGVPSRFSGSGSGTQFILTISSLQPEDFATYYCQQLNSYPGFTFGPGTKVDIKR | – | 19
mAb10930 (antibody, V domains shown) VH: EVQLVESGGGLVQPGRSLRLSCAASGFTFDDYAMYWVRQAPGKGLEWVSGISWNSGSIGYADSVKGRFTISRDNAKNSLYLQMNSLRAADTALYYCAKDKDWNSRGYYYYGMDVWGQGTTVTVSS VL: not shown | 27 | 22
mAb10921 (antibody, V domains shown) VH: EVQLVESGGGLVQPGGSLRLSCAASGITVSSNYMSWVRQAPGKGLEWVSVIYSGGSTFYADSVKGRFTISRHNSKNTLYLQMNSLRAEDTAVYYCARERNFDAFDIWGQGTMVTVSS VL: DIQMTQSPSSVSASVGDRVTITCRASQGISSWLAWYQQKPGKAPKLLIYAASSLQSGVPSRFSGSGSGTDFTLTISSLQPEDFATYYCQQANSFPLFTFGPGTKVDIKR | 23 | –
mAb10923 (antibody, V domains shown) VH: QVQLVQSGAEVKKPGASVKVSCKASGYTFINYYIHWVRQAPGQGLEWMGWINPNSGGTNYAQKFQGRVTMTRDTSISTAYMELSRLRSDDTAVYYCAIITIFGVVTWFDPWGQGTLVTVSS VL: not shown | 37 | 25
mAb10971 (antibody, V domains shown) VH: EVQLVESGGGLIQPGGSLRLSCAASGVTVSSNYMSWVRQAPGKGLEWVSVIYSGGSTFYSDSVKGRFSISRDNSKNTLYLQMNSLRAEDTAVYYCARDLYYYGMDVWGQGTTVTVSS VL: DIQLTQSPSFLSASVGDRVTITCRASQGISTYLAWYQQKPGKAPKLLIYAASTLQSGVPSRFSGSGSGTEFTLTISSLQPEDFATYYCQQLDSYPGLTFGGGTKVEIKR | – | 19
mAb10913 (antibody, V domains shown) VH: EVQLVESGGGLVQPGGSLRLSCAASGFTFRNYEMNWVRQAPGKGLEWVSYITSSGSTMYYADSVKGRFTISRDNAKNSLYLQMNSLRAEDTAVYYCARDGFYYYYAMDVWGQGTTVTVSS VL: QSVLTQPPSVSAAPGQKVTISCSGSSSNIGNNYVSWYQQLPGTAPKLLIYDNNKRPSGIPDRFSGSKSGTSATLGITGLQTGDEADYYCGTWDSSLSVGRVFGTGTKVTVLG | 34 | 26
mAb10937 (antibody, V domains shown) VH: QITLKESGPTLVKPTQTLTLTCTFSGFSLSTNVVGVGWIRQPPGKALEWLALIYWNDDKRYSPSLKSRLTITKDTSKNQVVLTMTNMDPVDTATYYCAHGPTGDYFDYWGQGTLVTVSS VL: not shown | 27 | 22
mAb10982 (antibody, V domains shown) VH: EVQLVESGGGLVQPGGSLRLSCAASGLTVSSNYMSWVRQAPGKGLEWVSVIYSGGTTYYADSVKGRFTISRHNSKNTLSLQMNSLRAEDTAVYYCARGEGANYYGMDVWGQGTTVTVSS VL: QSVLTQPPSVSGAPGQRVTISCTGSSSNIGTGYDVHWYQQLPGTAPKLLIYGNSNRPSGVPDRFSGSKSGTSASLAITGLQAEDEADYYCQSYDSSLSGYVVFGGGTKLTVLG | 29 | –
mAb10964 (antibody, V domains shown) VH: QVQLQESGPGLVKPSETLSLTCTVSGGSINNYYWIWIRQPPGKGLEWIGYIYHSGSTNYNPSLKSRVTISVDTSKNQFSLKVSSVTAADTAVYYCANMVRGVYEDDYWGQGTLVTVSS VL: DIQMTQSPSSLSASVGDRVTITCRASQSISNYLNWYQQKPGKAPKLLIFAASSLRSGVPSRFSGSGSGTDFTLTISSLHPEDFATYYCQQNYNTPLTFGPGTKVDIKR | – | 19
mAb10984 (antibody, V domains shown) VH: EVQLVESGGGLVQPGGSLRLSCAASGLTVNRNYMSWVRQAPGKGLEWVSLIYSGGSTYYADSVKGRFTISRDNSKNTLYLQMNSLRLEDTAVYYCARGELGIPYGMDVWGQGTTVTVSS VL: QSVLTQPPSVSAAPGQKVTISCSGSSSNIGNNYVSWYQQLPGTAPKLLIYDNNKRPSGIPDRFSGSKSGTSATLGITGLQTGDEADYYCGTWDSSLSAGVFGGGTKLTVLG | 29 | 20
